{
  "source": "patent US20100069304A1",
  "about": "“PROTECTIVE EFFECTS OF INHIBITING THE INTERACTION OF CALMODULIN AND MUTANT HUNTINGTIN PROTEIN” (priority 2008, published 2010)",
  "target": "htt-N63-148Q (63 amino acid N-terminal huntingtin fragment containing 148 polyglutamine repeats) (UniProt P42858)",
  "sequence (P42858 other isoform, or with tags, fused parts or gaps limits assumed)": "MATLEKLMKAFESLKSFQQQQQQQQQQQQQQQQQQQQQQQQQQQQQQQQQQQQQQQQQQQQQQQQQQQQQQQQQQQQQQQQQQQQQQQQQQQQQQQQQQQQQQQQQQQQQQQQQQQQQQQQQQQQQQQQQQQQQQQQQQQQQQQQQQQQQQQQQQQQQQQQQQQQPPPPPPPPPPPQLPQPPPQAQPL",
  "experiment": "cell-based or functional assay",
  "data": [
    {"substance": "CaM-C-term (C-terminal CaM construct, last 72 amino acids of calmodulin) (from UniProt P0DP23 78-149)", "values": [
      {"measurement": "TG-catalyzed modifications of huntingtin (second experiment, HEK-293T cells) (fold decrease)", "result": 2},
      {"measurement": "TG-modified huntingtin (81D4 immunoprecipitation, immunoblot, HEK-293T cells) (fold decrease)", "result": 2},
      {"measurement": "cytotoxicity (LDH assay, HEK-293T cells)", "result": 40, "unit": "% decrease"},
      {"measurement": "cytotoxicity (LDH assay, second experiment, HEK-293T cells)", "result": 40, "unit": "% decrease"}
    ]},
    {"substance": "CaM-center (center region CaM construct, 77 amino acids in the center of calmodulin) (from UniProt P0DP23 37-113)", "values": [
      {"measurement": "TG-catalyzed modifications of huntingtin (second experiment, HEK-293T cells) (fold decrease)", "result": 2},
      {"measurement": "TG-modified huntingtin (81D4 immunoprecipitation, immunoblot, HEK-293T cells) (fold decrease)", "result": 2},
      {"measurement": "carbachol-stimulated intracellular Ca2+ release (Fura-2, HEK-293T cells)", "result": 10, "unit": "% decrease"},
      {"measurement": "cytotoxicity (LDH assay, HEK-293T cells)", "result": 40, "unit": "% decrease"},
      {"measurement": "cytotoxicity (LDH assay, second experiment, HEK-293T cells)", "result": 50, "unit": "% decrease"}
    ]}
  ]
}
